Data on 91 sequences can be found in the supplement of paper PMC9112550, “Optimization of the antimicrobial peptide Bac7 by deep mutational scanning” (BMC Biology, 2022).
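Note: peptides expressed intracellularly from a pBAD plasmid library in pooled LB shake-flask culture, induced with 0.3% L-arabinose, DNA abundance read by NGS, three biological replicates, DESeq2 with apeglm shrinkage.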

The subject of the data set is Escherichia coli TOP10. Kind of data set: shrunken log2 fold change of peptide-encoding DNA abundance (4.5 h post-induction vs induction); higher = less antimicrobial activity (less host growth inhibition). Conditions: time post-induction: 4.5 h; library: site-saturation at positions 5, 18, 19, 20.
In the case of RRIRWRPPRLPRPRPRPTHIPRP, the “shrunken log2 fold change” value is -0.067. Turning to RRIRFRPPRLPRPRPRPSYCPRP, the “shrunken log2 fold change” value is -0.345. For RRIRQRPPRLPRPRPRPKRDPRP, the “shrunken log2 fold change” value was 0.114. For RRIRVRPPRLPRPRPRPAAFPRP, the “shrunken log2 fold change” value was determined as 0.227.

As for RRIRHRPPRLPRPRPRPWNGPRP, the “shrunken log2 fold change” value was -0.228. Then RRIRQRPPRLPRPRPRPFNMPRP, with 0.00759. In the case of RRIRFRPPRLPRPRPRPGTRPRP, the “shrunken log2 fold change” value was 0.208. RRIRNRPPRLPRPRPRPKNMPRP: the “shrunken log2 fold change” value is -0.189. As to RRIRHRPPRLPRPRPRPDAGPRP, the “shrunken log2 fold change” value was -0.0143. Regarding RRIRNRPPRLPRPRPRPIFEPRP, the “shrunken log2 fold change” value came out at 0.0552. RRIRERPPRLPRPRPRPSSHPRP: the “shrunken log2 fold change” value was -0.0471.

Take RRIRARPPRLPRPRPRPCWCPRP: the “shrunken log2 fold change” value was found to be 0.721.

Consider RRIRNRPPRLPRPRPRPAGNPRP, for which the “shrunken log2 fold change” value was found to be 0.0404. Take RRIRHRPPRLPRPRPRPRMIPRP: the “shrunken log2 fold change” value is -8.79e-05. Take RRIRKRPPRLPRPRPRPSVCPRP: the “shrunken log2 fold change” value was -0.0364. Take RRIRTRPPRLPRPRPRPRIWPRP: the “shrunken log2 fold change” value came out at 0.104. Turning to RRIRIRPPRLPRPRPRPDWGPRP, the “shrunken log2 fold change” value is -0.0242.

Turning to RRIRRRPPRLPRPRPRPTGPPRP, the “shrunken log2 fold change” value stood at 0.369. In the case of RRIRCRPPRLPRPRPRPAQFPRP, the “shrunken log2 fold change” value is 0.0313. Take RRIRVRPPRLPRPRPRPCSDPRP: the “shrunken log2 fold change” value was -0.0601.

For RRIRSRPPRLPRPRPRPDWPPRP, the “shrunken log2 fold change” value turned out to be 0.149. Regarding RRIRGRPPRLPRPRPRPVWGPRP, the “shrunken log2 fold change” value is 1.08. As to RRIRCRPPRLPRPRPRPSWMPRP, the “shrunken log2 fold change” value worked out at 0.326. On to RRIRGRPPRLPRPRPRPRDYPRP, for which the “shrunken log2 fold change” value is 0.258.

As to RRIRPRPPRLPRPRPRPWDYPRP, the “shrunken log2 fold change” value is -0.19. For RRIRRRPPRLPRPRPRPTCSPRP, the “shrunken log2 fold change” value came to 0.0172. With RRIRCRPPRLPRPRPRPHGFPRP, the “shrunken log2 fold change” value was -0.0942. In the case of RRIRRRPPRLPRPRPRPWCYPRP, the “shrunken log2 fold change” value is -0.439. As for RRIRTRPPRLPRPRPRPMYEPRP, the “shrunken log2 fold change” value is -0.375. For the sequence RRIRWRPPRLPRPRPRPFWMPRP, the “shrunken log2 fold change” value is -0.235. Turning to RRIRDRPPRLPRPRPRPISDPRP, the “shrunken log2 fold change” value turned out to be 0.0148.

Take RRIRWRPPRLPRPRPRPRIAPRP: the “shrunken log2 fold change” value was 0.133.

In the case of RRIRGRPPRLPRPRPRPLHDPRP, the “shrunken log2 fold change” value was 0.748.

As to RRIRIRPPRLPRPRPRPKWYPRP, the “shrunken log2 fold change” value was -0.22. On to RRIRQRPPRLPRPRPRPTYFPRP, for which the “shrunken log2 fold change” value was -0.0458.

With RRIRPRPPRLPRPRPRPGTTPRP, the “shrunken log2 fold change” value amounted to 0.195.

As for RRIRARPPRLPRPRPRPMQKPRP, the “shrunken log2 fold change” value is 0.222. Consider RRIRIRPPRLPRPRPRPHLGPRP, for which the “shrunken log2 fold change” value is 0.0798.

RRIRERPPRLPRPRPRPPMPPRP: the “shrunken log2 fold change” value turned out to be 0.0249. Take RRIRIRPPRLPRPRPRPTDIPRP: the “shrunken log2 fold change” value is -0.359. In the case of RRIRTRPPRLPRPRPRPFYGPRP, the “shrunken log2 fold change” value is -0.473.

RRIRDRPPRLPRPRPRPFSPPRP: the “shrunken log2 fold change” value was -0.158. As to RRIRPRPPRLPRPRPRPQRTPRP, the “shrunken log2 fold change” value was 0.113.

Take RRIRKRPPRLPRPRPRPPKNPRP: the “shrunken log2 fold change” value worked out at 0.546. As for RRIRCRPPRLPRPRPRPQHQPRP, the “shrunken log2 fold change” value was -0.145.

RRIRERPPRLPRPRPRPRFHPRP: the “shrunken log2 fold change” value is -0.447. With RRIRNRPPRLPRPRPRPVVIPRP the figure was -0.077; with RRIRCRPPRLPRPRPRPFKVPRP, -0.0177. For RRIRRRPPRLPRPRPRPDEYPRP, the “shrunken log2 fold change” value is -0.0588. RRIRSRPPRLPRPRPRPHWYPRP: the “shrunken log2 fold change” value was -0.648. Turning to RRIRSRPPRLPRPRPRPGMGPRP, the “shrunken log2 fold change” value came to 0.0599. Take RRIRMRPPRLPRPRPRPCNFPRP: the “shrunken log2 fold change” value is -0.415. With RRIRKRPPRLPRPRPRPDWHPRP the figure was 0.0739; with RRIRERPPRLPRPRPRPSQTPRP, -0.067; with RRIRKRPPRLPRPRPRPMLCPRP, -0.0829. As for RRIRTRPPRLPRPRPRPAWAPRP, the “shrunken log2 fold change” value was found to be 1.53. On to RRIRFRPPRLPRPRPRPKLGPRP, for which the “shrunken log2 fold change” value is -0.0528. Regarding RRIRCRPPRLPRPRPRPWDHPRP, the “shrunken log2 fold change” value is -0.259. In the case of RRIRHRPPRLPRPRPRPRFRPRP, the “shrunken log2 fold change” value was -0.105. Regarding RRIRWRPPRLPRPRPRPFPFPRP, the “shrunken log2 fold change” value is -0.28. Take RRIRERPPRLPRPRPRPMQMPRP: the “shrunken log2 fold change” value is -0.254. RRIRVRPPRLPRPRPRPVFFPRP: the “shrunken log2 fold change” value was -0.0099. For the sequence RRIRGRPPRLPRPRPRPNDMPRP, the “shrunken log2 fold change” value was -0.0212. In the case of RRIRTRPPRLPRPRPRPTGGPRP, the “shrunken log2 fold change” value was 0.164. With RRIRGRPPRLPRPRPRPWYGPRP, the “shrunken log2 fold change” value was -0.242.

As to RRIRFRPPRLPRPRPRPKHDPRP, the “shrunken log2 fold change” value was -0.168. RRIRYRPPRLPRPRPRPTYCPRP: the “shrunken log2 fold change” value is -0.165. As to RRIRVRPPRLPRPRPRPAPWPRP, the “shrunken log2 fold change” value was found to be 0.395. With RRIRCRPPRLPRPRPRPRNQPRP the figure was -0.0402; with RRIRHRPPRLPRPRPRPQQSPRP, -0.0132; with RRIRHRPPRLPRPRPRPFRTPRP, -0.0018. Then RRIRFRPPRLPRPRPRPSPGPRP, with -0.101. As for RRIRDRPPRLPRPRPRPTPWPRP, the “shrunken log2 fold change” value was 0.66. With RRIRVRPPRLPRPRPRPNQFPRP the figure was -0.349; with RRIRFRPPRLPRPRPRPVYQPRP, -0.0402. As to RRIRIRPPRLPRPRPRPEGTPRP, the “shrunken log2 fold change” value was determined as 0.0536. On to RRIRQRPPRLPRPRPRPEDHPRP, for which the “shrunken log2 fold change” value was -0.0311.

For RRIRMRPPRLPRPRPRPHHKPRP, the “shrunken log2 fold change” value was -0.316. RRIRPRPPRLPRPRPRPCTKPRP: the “shrunken log2 fold change” value was -0.244. In the case of RRIRVRPPRLPRPRPRPFCPPRP, the “shrunken log2 fold change” value is -0.0571. For the sequence RRIRCRPPRLPRPRPRPGYDPRP, the “shrunken log2 fold change” value is -0.167. As to RRIRFRPPRLPRPRPRPVLAPRP, the “shrunken log2 fold change” value turned out to be 0.239. Consider RRIRARPPRLPRPRPRPVDHPRP, for which the “shrunken log2 fold change” value is -0.0253. Take RRIRLRPPRLPRPRPRPKCFPRP: the “shrunken log2 fold change” value is -0.00607.

RRIRIRPPRLPRPRPRPYRMPRP: the “shrunken log2 fold change” value was -1.26.

Consider RRIRKRPPRLPRPRPRPMMMPRP, for which the “shrunken log2 fold change” value was 0.619.

As to RRIRARPPRLPRPRPRPHSHPRP, the “shrunken log2 fold change” value was 0.144. As to RRIRCRPPRLPRPRPRPTVEPRP, the “shrunken log2 fold change” value is 0.199. As for RRIRHRPPRLPRPRPRPTCFPRP, the “shrunken log2 fold change” value amounted to 0.0654. For the sequence RRIRPRPPRLPRPRPRPKNKPRP, the “shrunken log2 fold change” value was -0.187.

For the sequence RRIRVRPPRLPRPRPRPLKDPRP, the “shrunken log2 fold change” value was -0.242.
